This note sets out measurements from paper PMC11032371.

pKd: −log10 of the molar value.

One assay deals with K63-diUb (UniProt P0CG48). Put plainly: ITC; 293 K; 50 mM HEPES pH 7.4, 50 mM NaCl, 0.5 mM TCEP; cell 50–100 μM, syringe usually 10-fold; 20 injections of 2 μl; averages of at least two experiments; which partner was in the syringe not stated.
A further assay addresses K48-diUb (UniProt P0CG48). Described as above.

A word on the pKd: it is the negative decadic logarithm of the Kd, by convention in mol/L. In general, stoichiometry N refers to a count of units in the complex or per binding partner. On to “N4BP1 (850–893) (from UniProt Q6A037 850-893) (domain or fragment)”, for which, in the assay with K63-diUb, the pKd is 4.78, the dH is -24.6 kJ/mol and the stoichiometry N is 1.71. In the assay with K48-diUb, this substance gave a pKd of 4.33, a dH of -24.6 kJ/mol and a stoichiometry N of 1.29.
